Reference: patent US20200262869A1, “PEPTIDE ANTIBIOTIC COMPLEXES AND METHODS OF USE THEREOF” (GENENTECH, INC., priority 2017, published 2020)
In brackets after ≈: the same amount, converted by molar mass.

Key:
[1] = tested on: K. pneumoniae ATCC 43816; test: MIC, broth microdilution; type: cell-based; conditions: K. pneumoniae ATCC 43816
Method: (§1) Minimum Inhibitory Concentration (MIC). MICs were determined by performing two-fold serial dilutions of compound in Mueller Hinton II cation-adjusted broth to a final volume of 0.1 m1 in round-bottom 96-well assay plates (Corning Life Sciences No 3788). Each well was inoculated with 5×10^5 CFU/ml and incubated at 37° C. without agitation for 18 hours. Plates were scored by eye, and the lowest compound concentration preventing visible growth was determined to be the MIC.

[2] = tested on: S. marcescens CDC4385-74; test: MIC, broth microdilution; type: cell-based
Method: as §1

[3] = tested on: E. cloacae ATCC 13407; test: MIC, broth microdilution; type: cell-based
Method: as §1

[4] = tested on: A. baumannii ATCC 17978; test: MIC, broth microdilution; type: cell-based
Method: as §1

[5] = tested on: E. coli ATCC 25922; test: MIC, broth microdilution; type: cell-based; conditions: E. coli ATCC 25922
Method: as §1

[6] = tested on: P. aeruginosa ATCC 27853; test: MIC, broth microdilution; type: cell-based
Method: as §1

[7] = tested on: C. werkmanii ATCC 51114; test: MIC, broth microdilution; type: cell-based
Method: as §1

[8] = tested on: E. aerogenes ATCC 13408; test: MIC, broth microdilution; type: cell-based
Method: as §1

[9] = tested on: MDR K. pneumoniae CDC 0106; test: MIC against MDR clinical isolate; type: cell-based
Method: as §1

[10] = target: full length recombinant LepB from E. coli (E. coli) (UniProt P00803); test: kinetic enzyme assay, full-length LepB in detergent micelle, fluorogenic substrate Dabcyl-DAP-PAKAAE-Edans (SEQ ID NO: 6), 2-step irreversible binding model (Dynafit)
[11] = target: LepB D143Y (E. coli ATCC 25922) (E. coli) (UniProt P00803); test: cell-based or functional assay
[12] = target: LepB P88L (E. coli ATCC 25922) (E. coli) (UniProt P00803); test: cell-based or functional assay
[13] = target: LepB A297V (E. coli ATCC 25922) (E. coli) (UniProt P00803); test: cell-based or functional assay
[14] = target: LepB P88R (E. coli ATCC 25922) (E. coli) (UniProt P00803); test: cell-based or functional assay
[15] = target: LepB P88T (E. coli ATCC 25922) (E. coli) (UniProt P00803); test: cell-based or functional assay
[16] = target: LepB P88Q (E. coli ATCC 25922) (E. coli) (UniProt P00803); test: cell-based or functional assay
[17] = target: LepB V133F (E. coli ATCC 25922) (E. coli) (UniProt P00803); test: cell-based or functional assay
[18] = target: LepB V149(VVGLP) (E. coli ATCC 25922) (E. coli) (UniProt P00803); test: cell-based or functional assay
[19] = target: LepB L142R (E. coli ATCC 25922) (E. coli) (UniProt P00803); test: cell-based or functional assay
[20] = target: LepB E83K (E. coli ATCC 25922) (E. coli) (UniProt P00803); test: cell-based or functional assay
[21] = target: LepB in E. coli K-12 MG1655 (E. coli) (UniProt P00803); test: cell-based or functional assay
[22] = target: LepB F85S (E. coli ATCC 25922) (E. coli) (UniProt P00803); test: cell-based or functional assay

In the case of `CCCCCCCCCCCCCCCC(=O)N(C)[C@H](CO)C(=O)N[C@H](C)C(=O)NCC(=O)N(C)[C@@H]1C(=O)N[C@@H](C)C(=O)N[C@H](C(=O)O)Cc2ccc(O)c(c2)-c2cc1ccc2O` [Arylomycin A-C16, reference compound], the MIC [1] is reported as >64 µg/mL, the MIC [2] is reported as >64 µg/mL and the MIC [3] is reported as >64 µg/mL. For the same compound, the MIC [4] was >64 µg/mL, the MIC [5] was >64 µg/mL and the MIC [6] was >64 µg/mL. For the same compound, the MIC [7] was >64 µg/mL and the MIC [8] was >64 µg/mL.

In the case of `C[C@H]1COc2c(N3CCN(C)CC3)c(F)cc3c(=O)c(C(=O)O)cn1c23` [Levofloxacin], the MIC ([9]; Klebsiella pneumoniae) is reported as > 64 µg/mL.

With `C[C@@H](O)[C@H]1C(=O)N2C(C(=O)O)=C(S[C@@H]3CN[C@H](C(=O)N(C)C)C3)[C@H](C)[C@H]12` [Meropenem] the MIC ([9]; Klebsiella pneumoniae) was > 64 µg/mL.

With `CN(C)c1cc(NC(=O)CNC(C)(C)C)c(O)c2c1C[C@H]1C[C@H]3[C@H](N(C)C)C(O)=C(C(N)=O)C(=O)[C@@]3(O)C(O)=C1C2=O` [Tigecycline] the MIC ([9]; Klebsiella pneumoniae) was 2 µg/mL (≈ 3.41 µM).

Colistin gave an MIC ([9]; MDR K. pneumoniae CDC 0106) of 16 µg/mL.

G0775 (peptide) showed a kinact [10] of 0.0007 s⁻¹, a Fold MIC Increase [11] of 8 fold and a Fold MIC Increase [12] of 16 fold. For the same compound, the Fold MIC Increase [13] was 4 fold, the Fold MIC Increase [14] was 16 fold and the Fold MIC Increase [15] was 4 fold. The Fold MIC Increase [16] was 4 fold, the Fold MIC Increase [17] was 16 fold and the Fold MIC Increase [18] was 128 fold. It also gave a Fold MIC Increase [19] of 8 fold, a Fold MIC Increase [20] of 16 fold and a G0775 MIC (µg/ml), MG 1655 - LepB High (Increase LepB expression level) [21] of 1 µg/mL. The G0775 MIC (µg/ml), MG 1655 - LepB Low (Reduced LepB expression level) [21] was 0.008 µg/mL, the G0775 MIC (µg/ml), MG1655 WT [21] was 0.125 µg/mL and the Fold MIC Increase [22] was 8 fold.

With Gentamicin the MIC ([9]; MDR K. pneumoniae CDC 0106) was >64 µg/mL.
